Laboratory results from patent US20220195388A1.
One block for each substance: values may come before it.

Columns and labels:
[1] = biological target: CD3 (TCR/CD3 complex) on the surface of Jurkat cells, PBMCs and T responder cells (UniProt P07766); assay: flow cytometry, freshly isolated PBMCs stained with PE-labeled OKT3 Fab-multimers, before D-biotin; only live (PI negative) cells shown
[2] = biological target: CD3 (TCR/CD3 complex) on the surface of Jurkat cells, PBMCs and T responder cells (UniProt P07766); assay: flow cytometry, second staining with PE-labeled OKT3 Fab-multimers of PBMCs that had been stained, treated with D-biotin and washed (control); live cells
[3] = biological target: CD3 (TCR/CD3 complex) on the surface of Jurkat cells, PBMCs and T responder cells (UniProt P07766); assay: flow cytometry, PBMCs stained with PE-labeled OKT3 Fab-multimers and then treated with D-biotin, which disrupts the Fab to Strep-Tactin bond; remaining PE signal on live cells
[4] = biological target: CD28 on the surface of PBMCs and T cells (human) (UniProt P10747); assay: flow cytometry, freshly isolated PBMCs before selection stained with fluorescent αCD28 Fab-multimers; only live (PI negative) CD3+ cells shown
[5] = biological target: CD28 on the surface of PBMCs and T cells (human) (UniProt P10747); assay: flow cytometry, CD28+ cells isolated by Fab-multimer magnetic selection, released with D-biotin, washed and stained again with CD28 Fab-multimers; live CD3+ cells
[6] = biological target: CD28 on the surface of PBMCs and T cells (human) (UniProt P10747); assay: flow cytometry, selected CD28+ cells after D-biotin and washing, stained with an α-Ig kappa light chain mAb to detect remaining Fab monomers; live CD3+ cells. The same mAb on cells before selection (negative control, no Fab) gives 2.73 in the gate.

CD3 (TCR/CD3 complex) on the surface of Jurkat cells, PBMCs and T responder cells, sequence (P07766 23-207, one chain of several): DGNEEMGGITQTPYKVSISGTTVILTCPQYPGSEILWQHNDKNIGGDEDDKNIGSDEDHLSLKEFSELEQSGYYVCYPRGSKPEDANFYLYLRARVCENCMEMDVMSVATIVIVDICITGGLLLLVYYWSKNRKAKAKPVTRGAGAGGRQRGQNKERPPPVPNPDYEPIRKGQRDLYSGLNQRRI

percentage of cells within gate [1]: 64.5%
percentage of cells within gate [2]: 64.7%
percentage of cells within gate [3]: 0.005%
Substance: OKT3 Fab fragments multimerized with Strep-Tactin

percentage of cells within gate [4]: 77.9%
percentage of cells within gate [5]: 96.7%
Substance: anti-CD28 Fab fragments (from CD28.3) multimerized with Strep-Tactin (from UniProt P22629 38-163)

percentage of cells within gate [6]: 5.91%
Substance: αCD28 Fab fragment derived from the monoclonal anti-human CD28 antibody CD28.3, heavy chain C-terminally fused to the Twin-Strep-tag (monomeric)
